Here are results for 1 substance from paper PMC2742680.

The target of this experiment is Galdieria sulphuraria sarcosine dimethylglycine methyltransferase (Galdieria sulphuraria). Put plainly: SEC. In general terms: SEC sorts molecules by how far they enter the pores of the column.

For “Galdieria sulphuraria sarcosine dimethylglycine methyltransferase (enzyme)”, the stoichiometry N (as a rule, the number of molecules, sites or subunits per partner or assembly) is 2.
